Measurements from patent US20230192875A1 (KUMHO HT, published 2023).

T1: recombinant antigen human CD40L (Recombinant Human sCD40 Ligand; Peprotech, Cat. No.: 310-02) (human, UniProt P29965 113-261)
T1 construct: Soluble recombinant CD40L; also called rCD40L; recombinant antigen CD40L
T1 chain: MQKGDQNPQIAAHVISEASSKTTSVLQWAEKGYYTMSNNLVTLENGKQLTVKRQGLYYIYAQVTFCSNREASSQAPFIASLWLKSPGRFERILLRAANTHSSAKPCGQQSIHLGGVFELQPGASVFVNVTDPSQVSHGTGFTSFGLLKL


How the values were obtained:
[1] = target: T2, recombinant antigen human CD40 (Sino Biological Inc., Cat. No.: 10774-H02H) (human, UniProt P25942 21-193); assay: ELISA (FIG. 2)
T2 construct: Bought antigen used in the ELISA of the chimeric antibodies
Description: A dilution of the recombinant antigen human CD40 (Sino Biological Inc., Cat. No.: 10774-H02H) at a concentration of 1.0 μg/mL in phosphate buffered saline was plated at 100 μL/well into microplates and incubated at 37° C. for one hour to coat the plates therewith. Then, a 1× blocking solution (Sigma) was added in an amount of 200 μL per well and incubated at 37° C. for one hour to block the antigen.
The dilutions were added in an amount of 100 μL/well, incubated at 37° C. for one hour and washed three times with phosphate buffered saline. The antibodies were treated with the secondary antibody goat anti-human IgG F(ab′)2-HRP (Jackson Immunoresearch, Cat. No.: 109-035-006) at 37° C. for 30 min and washed three times with phosphate buffered saline. After reaction with 100 μL of TMB Single Solution (Life Technologies, Cat. No: 002023) per well at room temperature for 4-10 min in a dark place, the color development was stopped with 100 μL of 1.0 N sulfuric acid and then absorbance at 450 nm was measured.

[2] = target: T3, recombinant human CD40 (R&D systems, Cat. No.: P25942) (human, UniProt P25942 21-193); assay: ELISA, coated CD40 100 ng/well, hybridoma culture supernatant
T3 construct: also called rCD40; human recombinant CD40
Description: Human recombinant CD40 (R&D systems, Cat. No.:P25942) was plated in an amount of 100.0 ng per well into a MaxiSorp ELISA plate and reacted at 37° C. for one hour for antibody coating, followed by blocking by incubation with 200 μL of 1× blocking solution (Sigma) per well at 37° C. for one hour.

[3] = target: T1, recombinant antigen human CD40L …; assay: ELISA, antigen coated at 1.0 µg/mL, antibody at 1.0 µg/mL, anti-mouse IgG-HRP
[4] = target: T4, human CD40 expressed on Ramos cell line (ATCC CRL-1596) (human, UniProt P25942 21-277); assay: flow cytometry on Ramos cells, FITC-5C2 1.0 µg/mL, with or without preincubation with CD40L 15.0 µg/mL
T4 construct: whole, on cells; Endogenous CD40 on Ramos cells; also called CD40 on Ramos cells
Description: A solution of FITC Isomer I (Invitrogen, Cat. No.: F1906) at a concentration of 2.6 mg/mL in DMSO (Sigma-Aldrich, Cat. No.:276855) was added in an amount of 20.0 μL to each of the antibody solutions. After FITC conjugation by stirring at room temperature for 2 hours, the resulting antibody solutions were dialyzed against phosphate buffered saline to obtain FITC-labeled antibodies.
The cells were washed again with phosphate buffered saline and then subjected to fluorescent immunoassay using flow cytometry (Stratedigm, S1000EXi).

[5] = target: T3, recombinant human CD40 (R&D systems, …); assay: ELISA, coated rCD40 1.0 µg/mL, CHO culture supernatant
Description: Each of the humanized antibody cultures was assayed for reactivity for a recombinant antigen human CD40 (rCD40; R&D systems, Cat. No.: P25942) by ELISA. For this assay, a dilution of rCD40 at a concentration of 1.0 μg/mL in phosphate buffered saline was plated at a density of 100 μL/well into microplates and incubated at 37° C. for one hour to coat the microplates with the antigen which was then blocked by adding a 1× blocking solution (Sigma) in an amount of 200 μl per well and incubating at 37° C. for one hour.
Following one hour of incubation with 100 μL of each of the humanized anti-CD40 antibody cultures at 37° C., the microplates were washed three times with phosphate buffered saline. Treatment with the secondary antibody goat anti-human IgG F(ab′)2-HRP (Jackson Immunoresearch, Cat. No.: 109-035-006) at 37° C. for 30 min was followed by three rounds of washing with phosphate buffered saline. Then, TMB Single Solution (Life Technologies, Cat. No: 002023) was added in an amount of 100 μl per well and incubated at room temperature for 5-10 min in a dark place. Color development was stopped with 100 μL of 1.0 N sulfuric acid and absorbance at 450 nm was measured.

T2 sequence (P25942 21-193 limits assumed): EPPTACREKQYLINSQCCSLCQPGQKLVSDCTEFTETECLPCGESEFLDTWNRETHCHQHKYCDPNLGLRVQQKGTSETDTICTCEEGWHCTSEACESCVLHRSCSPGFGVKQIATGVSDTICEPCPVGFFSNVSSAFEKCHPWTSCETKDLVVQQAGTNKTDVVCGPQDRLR
T3 sequence (P25942 21-193 limits assumed, one chain of several): as the sequence (P25942 21-193 limits assumed) above
T4 sequence (P25942 21-277): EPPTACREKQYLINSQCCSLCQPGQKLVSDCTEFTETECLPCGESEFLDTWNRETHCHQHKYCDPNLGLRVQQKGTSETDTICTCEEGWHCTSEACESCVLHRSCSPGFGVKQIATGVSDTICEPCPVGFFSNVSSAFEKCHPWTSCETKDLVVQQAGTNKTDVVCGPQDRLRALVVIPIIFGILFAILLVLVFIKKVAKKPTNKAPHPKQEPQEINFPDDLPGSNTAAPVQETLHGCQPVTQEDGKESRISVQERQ

binding result [5]	Binder	also measured
	anti-CD40 5C2 chimeric antibody comprising human IgG1 constant region (antibody, expressed in ExpiCHO and purified on Protein A; also called Chimeric IgG1; IgG1 chimeric antibody) heavy: not shown light: DIQMTQTTSSLSASLGQRVTISCRASQDISNHLNWYQQKPNGTVRLLISSTSRLHSGVPSRFSGSGSGTDYSLTISNLEQEDIATYFCQQGNTLPWTFGGGTKLEIKRTVAAPSVFIFPPSDEQLKSGTASVVCLLNNFYPREAKVQWKVDNALQSGNSQESVTEQDSKDSTYSLSSTLTLSKADYEKHKVYACEVTHQGLSSPVTKSFNRGEC	binding result [1]: binds
	anti-CD40 5C2 chimeric antibody comprising human IgG2 constant region (antibody, also called Chimeric IgG2; IgG2 chimeric antibody) heavy: QVQMLQSGTELVRPGTSVKVSCKASGYGFTNYLIEWVKQRPGQGLEWIGVINPGYGGVNYNEKFKGKAILTADKSSSTAYMHLTSLTSDDSAVYFCARGGSGFAFWGQGTLVTVSTASTKGPSVFPLAPCSRSTSESTAALGCLVKDYFPEPVTVSWNSGALTSGVHTFPAVLQSSGLYSLSSVVTVPSSNFGTQTYTCNVDHKPSNTKVDKTVERKCCVECPPCPAPPVAGPSVFLFPPKPKDTLMISRTPEVTCVVVDVSHEDPEVQFNWYVDGVEVHNAKTKPREEQFNSTFRVVSVLTVVHQDWLNGKEYKCKVSNKGLPAPIEKTISKTKGQPREPQVYTLPPSREEMTKNQVSLTCLVKGFYPSDIAVEWESNGQPENNYKTTPPMLDSDGSFFLYSKLTVDKSRWQQGNVFSCSVMHEALHNHYTQKSLSLSPGK light: DIQMTQTTSSLSASLGQRVTISCRASQDISNHLNWYQQKPNGTVRLLISSTSRLHSGVPSRFSGSGSGTDYSLTISNLEQEDIATYFCQQGNTLPWTFGGGTKLEIKRTVAAPSVFIFPPSDEQLKSGTASVVCLLNNFYPREAKVQWKVDNALQSGNSQESVTEQDSKDSTYSLSSTLTLSKADYEKHKVYACEVTHQGLSSPVTKSFNRGEC	binding result [1]: binds
	anti-CD40 5C2 chimeric antibody comprising human IgG4 constant region (antibody, also called Chimeric IgG4; IgG4 chimeric antibody) heavy: not shown light: DIQMTQTTSSLSASLGQRVTISCRASQDISNHLNWYQQKPNGTVRLLISSTSRLHSGVPSRFSGSGSGTDYSLTISNLEQEDIATYFCQQGNTLPWTFGGGTKLEIKRTVAAPSVFIFPPSDEQLKSGTASVVCLLNNFYPREAKVQWKVDNALQSGNSQESVTEQDSKDSTYSLSSTLTLSKADYEKHKVYACEVTHQGLSSPVTKSFNRGEC	binding result [1]: binds
	anti-CD40 mouse monoclonal antibody 5C2 (antibody, V domains shown, also called 5C2 antibody (mouse antibody); antibody of hybridoma KCLRF-BP-00381) VH: QVQMLQSGTELVRPGTSVKVSCKASGYGFTNYLIEWVKQRPGQGLEWIGVINPGYGGVNYNEKFKGKAILTADKSSSTAYMHLTSLTSDDSAVYFCARGGSGFAFWGQGTLVTVST VL: DIQMTQTTSSLSASLGQRVTISCRASQDISNHLNWYQQKPNGTVRLLISSTSRLHSGVPSRFSGSGSGTDYSLTISNLEQEDIATYFCQQGNTLPWTFGGGTKLEIK	binding result [2]: binds; binding result [3]: no binding (tested: 1.0 µg/mL); binding result [4]: binds
binds	humanized 5C2 antibody VH1VL2 (a combination of heavy chain VH1 and light chain VL2) (antibody, human IgG2, V domains shown, Tested as CHO culture supernatant) VH: QVQLVQSGAEVKKPGASVKVSCKASGYGFTNYLIEWVRQAPGQGLEWIGVINPGYGGVNYNEKFKGRATLTADKSISTAYMELSRLRSDDTAVYFCARGGSGFAFWGQGTLVTVSS VL: EIVMTQSPATLSVSPGERATLSCRASQDISNHLNWYQQKPGQAVRLLISSTSRLHSGIPARFSGSGSGTEYTLTISSLQSEDFAVYFCQQGNTLPWTFGQGTKVEIK	
binds	humanized 5C2 antibody VH3VL2 (a combination of heavy chain VH3 and light chain VL2) (antibody, human IgG2, V domains shown, Tested as CHO culture supernatant) VH: QVQLVQSGAEVKKPGSSVKVSCKASGYGFTNYLIEWVRQAPGQGLEWIGVINPGYGGVNYNEKFKGRATLTADKSTSTAYMELSSLRSEDTAVYFCARGGSGFAFWGQGTLVTVSS VL: EIVMTQSPATLSVSPGERATLSCRASQDISNHLNWYQQKPGQAVRLLISSTSRLHSGIPARFSGSGSGTEYTLTISSLQSEDFAVYFCQQGNTLPWTFGQGTKVEIK	
binds	humanized 5C2 antibody VH2VL2 (a combination of heavy chain VH2 and light chain VL2) (antibody, human IgG2, V domains shown, Tested as CHO culture supernatant) VH: QVQLVQSGAEVKKPGASVKVSCKASGYGFTNYLIEWVRQAPGQGLEWIGVINPGYGGVNYNEKFKGRVTLTADKSISTAYMELSRLRSDDTAVYFCARGGSGFAFWGQGTLVTVSS VL: EIVMTQSPATLSVSPGERATLSCRASQDISNHLNWYQQKPGQAVRLLISSTSRLHSGIPARFSGSGSGTEYTLTISSLQSEDFAVYFCQQGNTLPWTFGQGTKVEIK	
binds	humanized 5C2 antibody VH5VL1 (a combination of heavy chain VH5 and light chain VL1) (antibody, human IgG2, V domains shown, Tested as CHO culture supernatant) VH: EVQLVQSGAEVKKPGESVKISCKASGYGFTNYLIEWVRQMPGKGLEWIGVINPGYGGVNYNEKFKGQATLSADKSISTAYLQLSSLKASDTAVYFCARGGSGFAFWGQGTLVTVSS VL: DIQMTQSPSSLSASVGDRVTITCRASQDISNHLNWYQQKPGKAVKLLISSTSRLHSGVPSRFSGSGSGTDYTLTISSLQPEDFATYFCQQGNTLPWTFGQGTKVEIK	
binds	humanized 5C2 antibody VH5VL2 (a combination of heavy chain VH5 and light chain VL2) (antibody, human IgG2, V domains shown, Tested as CHO culture supernatant) VH: EVQLVQSGAEVKKPGESVKISCKASGYGFTNYLIEWVRQMPGKGLEWIGVINPGYGGVNYNEKFKGQATLSADKSISTAYLQLSSLKASDTAVYFCARGGSGFAFWGQGTLVTVSS VL: EIVMTQSPATLSVSPGERATLSCRASQDISNHLNWYQQKPGQAVRLLISSTSRLHSGIPARFSGSGSGTEYTLTISSLQSEDFAVYFCQQGNTLPWTFGQGTKVEIK	
binds	humanized 5C2 antibody VH1VL1 (a combination of heavy chain VH1 and light chain VL1) (antibody, human IgG2, V domains shown, Tested as CHO culture supernatant) VH: QVQLVQSGAEVKKPGASVKVSCKASGYGFTNYLIEWVRQAPGQGLEWIGVINPGYGGVNYNEKFKGRATLTADKSISTAYMELSRLRSDDTAVYFCARGGSGFAFWGQGTLVTVSS VL: DIQMTQSPSSLSASVGDRVTITCRASQDISNHLNWYQQKPGKAVKLLISSTSRLHSGVPSRFSGSGSGTDYTLTISSLQPEDFATYFCQQGNTLPWTFGQGTKVEIK	
binds	humanized 5C2 antibody VH3VL1 (a combination of heavy chain VH3 and light chain VL1) (antibody, human IgG2, V domains shown, Tested as CHO culture supernatant) VH: QVQLVQSGAEVKKPGSSVKVSCKASGYGFTNYLIEWVRQAPGQGLEWIGVINPGYGGVNYNEKFKGRATLTADKSTSTAYMELSSLRSEDTAVYFCARGGSGFAFWGQGTLVTVSS VL: DIQMTQSPSSLSASVGDRVTITCRASQDISNHLNWYQQKPGKAVKLLISSTSRLHSGVPSRFSGSGSGTDYTLTISSLQPEDFATYFCQQGNTLPWTFGQGTKVEIK	
binds	humanized 5C2 antibody VH2VL1 (a combination of heavy chain VH2 and light chain VL1) (antibody, human IgG2, V domains shown, Tested as CHO culture supernatant) VH: QVQLVQSGAEVKKPGASVKVSCKASGYGFTNYLIEWVRQAPGQGLEWIGVINPGYGGVNYNEKFKGRVTLTADKSISTAYMELSRLRSDDTAVYFCARGGSGFAFWGQGTLVTVSS VL: DIQMTQSPSSLSASVGDRVTITCRASQDISNHLNWYQQKPGKAVKLLISSTSRLHSGVPSRFSGSGSGTDYTLTISSLQPEDFATYFCQQGNTLPWTFGQGTKVEIK	
